Results on two molecules are retold here after article PMC6035183, “ETS transcription factors induce a unique UV damage signature that drives recurrent mutagenesis in melanoma”.

For data set [1], the target named is T1, ETS1 (ETS1ΔN280) (UniProt P27577 280-440).
T1 sequence: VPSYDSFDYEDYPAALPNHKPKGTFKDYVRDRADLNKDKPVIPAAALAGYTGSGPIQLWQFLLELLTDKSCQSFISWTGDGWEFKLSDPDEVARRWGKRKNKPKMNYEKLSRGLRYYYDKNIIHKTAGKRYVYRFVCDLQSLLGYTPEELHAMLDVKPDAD
The data set can be described thus: EMSA; 4 pmol DNA, 0-32 pmol ETS1; multiple shifted bands; 25 mM Tris-Cl pH 7.9, 10% glycerol, 6 mM MgCl2, 0.5 mM EDTA, 60 mM KCl, 0.5 mM DTT, 200 ug/ml BSA; 40 ul, 40 min on ice; 8% native PAGE. The conditions noted are these: protein: recombinant; label: 5'-32P on S15 (TTCC strand); blunt. In general terms: In EMSA bound probe runs differently from free probe, usually more slowly.

Data set [2] has as its target T1, ETS1 (ETS1ΔN280). The data set can be described thus: EMSA; 4 pmol DNA, 0-32 pmol ETS1; two shifted bands at low ETS1; 25 mM Tris-Cl pH 7.9, 10% glycerol, 6 mM MgCl2, 0.5 mM EDTA, 60 mM KCl, 0.5 mM DTT, 200 ug/ml BSA; 40 ul, 40 min on ice; 8% native PAGE. Particulars: protein: recombinant; label: 5'-32P on S14 (TTCC strand); blunt.

B1: SDHD promoter fragment (dsDNA)
DNA 1: CTCGACTTCCGGTTCACCCAGCATTTCCTCTTCCCTGTT
DNA 2: AACAGGGAAGAGGAAATGCTGGGTGAACCGGAAGTCGAG
modifications: 5'-biotin on S16
For the molecule B1, the binding result with ETS1 (ETS1ΔN280) [1] was “binds”.

B2: RPL13A promoter fragment (dsDNA)
DNA 1: GTCCAATCCGGACATTCTTCCGGTTGGACC
DNA 2: GGTCCAACCGGAAGAATGTCCGGATTGGAC
modifications: 5'-biotin on S13
Regarding B2, the binding result with ETS1 (ETS1ΔN280) [2] was “binds”.
